Data: US20250026820A1 (WUHAN YZY BIOPHARMA, published 2025)

T1: TGFβ2 protein (GenScript Z03429) (human, UniProt P61812 303-414)
T1 construct: also called human TGF-β2
T1 sequence (looked up): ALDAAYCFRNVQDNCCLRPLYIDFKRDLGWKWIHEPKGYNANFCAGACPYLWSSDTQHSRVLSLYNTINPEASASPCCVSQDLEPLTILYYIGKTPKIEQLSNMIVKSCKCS

T2: TGFβ3 protein (GenScript Z03430) (human, UniProt P10600 301-412)
T2 construct: also called human TGF-β3
T2 sequence (looked up): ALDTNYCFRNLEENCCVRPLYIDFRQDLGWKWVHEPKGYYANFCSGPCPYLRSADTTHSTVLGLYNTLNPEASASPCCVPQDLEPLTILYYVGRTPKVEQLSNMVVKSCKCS


Legend:
[1] = biological target: T3, TGFβ1 protein (GenScript Z03411) (human, UniProt P01137 279-390); assay: ELISA; plate coated with human TGF-β1; antibody titrated; HRP anti-human Fc
T3 construct: also called human TGF-β1; TGFβ1 antigen
T3 sequence (P01137 279-390 limits assumed, one chain of several): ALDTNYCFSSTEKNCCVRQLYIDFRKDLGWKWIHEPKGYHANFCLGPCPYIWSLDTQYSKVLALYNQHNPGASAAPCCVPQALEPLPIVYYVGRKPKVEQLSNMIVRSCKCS
Procedure: (§1) A microplate was coated with 2 μL/well of the human TGF-β1/2/3 protein solution, respectively, at 4° C. overnight; the supernatant was discarded, 300 μL of a blocking solution (PBS containing 3% BSA) was added to each well, and the plate was blocked at 37° C. for 2 h; the antibodies were gradiently diluted, and the diluent was PBS containing 1% BSA. For example, the initial concentration of the antibody dilution was 500 nM, and diluted 10-fold to obtain 8 concentration gradients. The diluted antibody was added to the well of the microplate at 200 μL per well, the plate was left to stand and incubated at room temperature for 2 h, and the supernatant was discarded; the plate was washed for 3 times with 200 μL/well PBST (PBS containing 0.1% Tween 20); a diluted HRP-labeled anti-human Fc secondary antibody (SIGMA, A8667) was added, the secondary antibody was used after a 1:20000 dilution, the diluent was PBS containing 1% BSA, the volume was 100 μL/well, and the plate was incubated at room temperature for 1 h; the plate was washed for 5 times with 200 μL/well PBST; a TMB chromogenic solution (BD, 55214) was added at 100 μL/well for color development at 37° C. for 8 min. 2 M HCl stop solution was added at 100 μL/well. After the addition of the stop solution, the 450 nm values were read using a microplate reader within 30 min. Data were analyzed using GraphPad Prism 6.0 software and avidity fitting was performed to give EC50 values.

[2] = biological target: T1, TGFβ2 protein (GenScript Z03429); assay: ELISA; plate coated with human TGF-β2; antibody titrated; HRP anti-human Fc
Procedure: as §1

[3] = biological target: T2, TGFβ3 protein (GenScript Z03430); assay: ELISA; plate coated with human TGF-β3; antibody titrated; HRP anti-human Fc
Procedure: as §1

Row | Binder | EC50 [1] [nM] | EC50 [2] [nM] | EC50 [3] [nM]
1 | B1B8 anti-TGFβ single domain heavy-chain antibody (variable region, linker peptide, human IgG1 heavy chain constant region) (Fc fusion, not shown: linker peptide (GGGGS)n, n=1, 2 or 3; human IgG1 heavy chain constant region, GenBank No. AK303185.1) heavy: EVQVVESGGGLVQPGGSLTLSCVASGFAFSFTPMRWVRQAPGKGLEWVSSISIRGDTTDYADSVKGRFTISRDNAKNTLYLQMNSLKPEDTAVYYCSRGSSISTSTERTQGTQVTVSS | 0.533 | 0.464 | 0.817
2 | B1F8 anti-TGFβ single domain heavy-chain antibody (variable region, linker peptide, human IgG1 heavy chain constant region) (Fc fusion, also called BIF8; not shown: linker peptide (GGGGS)n, n=1, 2 or 3; human IgG1 heavy chain constant region, GenBank No. AK303185.1) heavy: QVQLVESGGGLVQPGGSLRLSCAASGSIFGVFYMGWFRQAPGKQREMVAISTDDRTSYVDSVKGRFTISRDNAKNTLALQMNSLKPEDTAVYFCNLNQLGTDYWGPGTQVTVSS | 0.785 | 1.42 | 1.29
3 | B3F3 anti-TGFβ single domain heavy-chain antibody (variable region, linker peptide, human IgG1 heavy chain constant region) (Fc fusion, not shown: linker peptide (GGGGS)n, n=1, 2 or 3; human IgG1 heavy chain constant region, GenBank No. AK303185.1) heavy: QVQLVESGGGLVQPGESLRLSCTASGSIFGVFYMGWFRQAPGKQRDMVAISTDDRTSYADSVKGRFTISRDNAKNTLALQMNSLKPEDTAVYFCNLNQLGTDYWGPGTQVTVSS | 1.48 | 1.62 | 1.46
4 | B3D6 anti-TGFβ single domain heavy-chain antibody (variable region, linker peptide, human IgG1 heavy chain constant region) (Fc fusion, not shown: linker peptide (GGGGS)n, n=1, 2 or 3; human IgG1 heavy chain constant region, GenBank No. AK303185.1) heavy: EVQLVESGGGLVQAGGSLRLSCAASGRSFSSLAVGWFRQPPGKKREIVAAVNWSGTSTYYPDSVKGRFSISRDNTKNTVYLQMNSLKPEDTAVYYCAADPDLRWLKLWGYEYWGQGTQVTVSS | 0.747 | 0.939 | 1.22
5 | B2G8 anti-TGFβ single domain heavy-chain antibody (variable region, linker peptide, human IgG1 heavy chain constant region) (Fc fusion, not shown: linker peptide (GGGGS)n, n=1, 2 or 3; human IgG1 heavy chain constant region, GenBank No. AK303185.1) heavy: QVQLVESGGGLVQPGGSLRLSCAASGISFSYYDMGWFRQAPGKQRELVAIVTSGGRTNYADSVKGRFTISRETAKSTMYLQMNSLKSEDTGVYYCNAHWIVTTDYWGQGTQVTVAS | 1.72 | 1.73 | 1.47
6 | B2C2 anti-TGFβ single domain heavy-chain antibody (variable region, linker peptide, human IgG1 heavy chain constant region) (Fc fusion, not shown: linker peptide (GGGGS)n, n=1, 2 or 3; human IgG1 heavy chain constant region, GenBank No. AK303185.1) heavy: QLQLVESGGGLVQPGGSLRLSCAGSGIAFSRVTMAWSRQAPGKQRELVALITDGNRSAYVDSVKGRFTISRDNTKKTMSLQMNDLKPEDTAVYYCVATDWVPTRRDYWGQGTQVTVSS | 1.25 | 1.42 | 1.43
7 | B1B7 anti-TGFβ single domain heavy-chain antibody (variable region, linker peptide, human IgG1 heavy chain constant region) (Fc fusion, not shown: linker peptide (GGGGS)n, n=1, 2 or 3; human IgG1 heavy chain constant region, GenBank No. AK303185.1) heavy: QVQLVESGGGLVQPGGSLTLSCTASGSMFSFYTMGWYRQATGKQRELVAGISLGGETTYAPSVKDRFTISRDNAKNTVYLQMNSLKPEDTALYNCNAYWGEDYWGQGTQVTVSS | 7.01 | 148 | 162
8 | B1C5 anti-TGFβ single domain heavy-chain antibody (variable region, linker peptide, human IgG1 heavy chain constant region) (Fc fusion, not shown: linker peptide (GGGGS)n, n=1, 2 or 3; human IgG1 heavy chain constant region, GenBank No. AK303185.1) heavy: EVQLVESGGGEVRPGGSLRLSCVVSGFTKDYGAIGWFRQAPGQEREGLGCIARKDGDTWSADSVKGRFTISRDNVRNTVYLQMNALKPEDRGVYYCAGDPSALYGCSDRSSEYQYWGQGTQVTVSS | 0.442 | 1.85 | 0.546
9 | B2H1 anti-TGFβ single domain heavy-chain antibody (variable region, linker peptide, human IgG1 heavy chain constant region) (Fc fusion, not shown: linker peptide (GGGGS)n, n=1, 2 or 3; human IgG1 heavy chain constant region, GenBank No. AK303185.1) heavy: QLQLVESGGGLVQPGESLRLSCAASGIIFSASTMAWFRQAPGKQRELVALITDGDRTNYADSVKGRFTISRDNAENTVYLQMTELKFEDTAVYYCNAFWLKAYWGQGTQVTVSS | 130 | 1.54 | 1.71
10 | B2A2 anti-TGFβ single domain heavy-chain antibody (variable region, linker peptide, human IgG1 heavy chain constant region) (Fc fusion, not shown: linker peptide (GGGGS)n, n=1, 2 or 3; human IgG1 heavy chain constant region, GenBank No. AK303185.1) heavy: EVQVVESGGAAVQPGESLRLSCAASGSIFNTATMGWFRQAPGKQREMVAIITDGGRTNYADSVKGRFTISRDATKNTVYLQMNSLNPGDTAVYYCNALTIVPRSSIYWGQGTQVTVSS | 48 | 1.18 | 1.3
11 | B3D2 anti-TGFβ single domain heavy-chain antibody (variable region, linker peptide, human IgG1 heavy chain constant region) (Fc fusion, not shown: linker peptide (GGGGS)n, n=1, 2 or 3; human IgG1 heavy chain constant region, GenBank No. AK303185.1) heavy: QLQLVESGGGLVQPGGSLTLSCLASGFTFSHYPMSWVRQAPGKGLEWVSVIGSDGAIKHYSDSVKGRFAISRDNAKNTLYLQMNSLKPEDTAVYYCAEGDSRYVRNRARGQGTQVTVSS | 69.2 | 27.6 | 1.19
